# From patent US20260158153A1, “BCMA MONOCLONAL ANTIBODY AND THE ANTIBODY-DRUG CONJUGATE” (priority 2021, published 2026)
# How the values were obtained:
# [1] = system: multiple myeloma (MM) patients; conditions: cited from earlier work
# MM1S = experiment: MTT in vitro cytotoxicity assay of BCMA antibody conjugates, MM1S; format: cell-based; conditions: Homo sapiens, MM1.S, 6000 cells, 96 h incubation, conjugates prepared via homogeneous conjugation process
# Protocol: (§1) The cell lines used in the cytotoxicity assays were (1). NCI-H929, JJN3, U266, and MM1S were obtained from ATCC, and 8226-2A1cell is Myeloma antigen express cells through culturing and clone-picking of ATCC's RPMI-8226. The cells were grown according to the provider manuals. To run the assay, the cells (180 μl, 6000 cells) were added to each well in a 96-well plate and incubated for 24 hours at 37° C. with 5% CO2. Next, the cells were treated with test compounds (20 μl) at various concentrations in appropriate cell culture medium (total volume, 0.2 mL). The control wells contain cells and the medium but lack the test compounds. […] MTT (5 mg/mL) was then added to the wells (20 μl) and the plates were incubated for 1.5 hr at 37° C. The medium was carefully removed and DMSO (180 μl) was added afterward. After it was shaken for 15 min, the absorbance was measured at 490 nm and 570 nm with a reference filter of 620 nm. The inhibition % was calculated according to the following equation: inhibition %=[1−(assay-blank)/(control-blank)]×100.
# JJN-3 = experiment: MTT in vitro cytotoxicity assay of BCMA antibody conjugates, JJN-3; format: cell-based; conditions: Homo sapiens, 6000 cells, 96 h incubation, conjugates prepared via homogeneous conjugation process
# Protocol: as §1
# NCI-H929 = experiment: MTT in vitro cytotoxicity assay of BCMA antibody conjugates, NCI-H929; format: cell-based; conditions: Homo sapiens, 6000 cells, 96 h incubation, conjugates prepared via homogeneous conjugation process
# Protocol: as §1
# JJN-3 cell xenograft = experiment: Antitumor activity in vivo, JJN-3 cell xenograft mouse model of multiple myeloma; conditions: FIG. 10; single dose 5 mg/Kg
# [2] = biological target: T1, Human B cell maturation antigen (BCMA, CD269) (human, UniProt Q02223 1-54); experiment: ELISA, plate coated with 1 ug/ml soluble BCMA (recombinant TrxA-BCMA), OD450 against IgG concentration
# T1 construct: Flow cytometry used whole BCMA on NCI-H929 and RPMI-8226-BCMA cells; also called hBCMA
# T1 sequence: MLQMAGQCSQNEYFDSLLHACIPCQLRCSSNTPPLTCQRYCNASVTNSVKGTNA
# [3] = biological target: T1, Human B cell maturation antigen (BCMA, …); experiment: flow cytometry on NCI-H929 cells with endogenous BCMA, PE anti-human IgG Fc secondary, MFI against concentration
# [4] = biological target: T1, Human B cell maturation antigen (BCMA, …); experiment: ELISA on recombinant TrxA-BCMA, OD450 against IgG concentration
molecule,measurement,setting,value
Belantamabmafodotin,overall response rate,[1]; for MM,32%
same,"patients reported ocular toxicities requiring dose adjustments, dose delays and treatment discontinuations",[1]; patients with this ADC,over 60%
CC(=O)O[C@H]1C(=O)[C@@]2(C)[C@H]([C@H](OC(=O)c3ccccc3)[C@]3(O)C[C@H](OC(=O)[C@H](O)[C@@H](NC(=O)c4ccccc4)c4ccccc4)C(C)=C1C3(C)C)[C@]1(OC(C)=O)CO[C@@H]1C[C@@H]2O [Paclitaxel],IC50,MM1S,3.28 nM
same,IC50,JJN-3,4.31 nM
same,IC50,NCI-H929,2.89 nM
same,orders of the antitumor activity,JJN-3 cell xenograft,Paclitaxel<C-385
"Humanized antibody hu5D2 (antibody, human IgG1, kappa, V domains shown, N-linked glycan at Asn300, also called Hu5D2 antibody; BCMA antibody) VH: QVQLVQSGAEVVKPGASVKMSCKASGYTFTSFLIHWVKQAPGQGLEWIGFIIPGNGGTKYNQKFQGKATLTSDTSSSTAYMELSSLRSEDSAVYYCARYDGSFEGYFDVWGQGTTLTVSS VL: DVVMTQSPLSLPVSLRQPASISCRSSQSLVHSDGNTYLHWYLQKPGQSPRLLIYKVSNRDSGVPDRFSGSGSGTDFTLKISRVEAEDLGVYFCSQSTHWPWTFGQGTKLEIKR",EC50 (read off the curve),[2],~0.02 µg/mL
same,EC50 (read off the curve),[3],~0.05 µg/mL
"J6M0 (antibody, V domains shown) VH: QVQLVQSGAEVKKPGSSVKVSCKASGGTFSNYWMHWVRQAPGQGLEWMGATYRGHSDTYYNQKFKGRVTITADKSTSTAYMELSSLRSEDTAVYYCARGAIYDGYDVLDNWGQGTLVTVSS VL: DIQMTQSPSSLSASVGDRVTITCSASQDISNYLNWYQQKPGKAPKLLIYYTSNLHSGVPSRFSGSGSGTDFTLTISSLQPEDFATYYCQQYRKLPWTFGQGTKLEIK",EC50 (read off the curve),[2],~0.06 µg/mL
same,EC50 (read off the curve),[4],~0.04 µg/mL
"hu5D2-Tub (antibody, human IgG1, kappa, V domains shown, conjugated to a tubulysin analog payload; sites and drug/antibody ratio of the lot used in Fig. 3 are not given, Antibody-drug conjugate of hu5D2; also called hu5D2 conjugated ADC; hu5D2-tub196) VH: QVQLVQSGAEVVKPGASVKMSCKASGYTFTSFLIHWVKQAPGQGLEWIGFIIPGNGGTKYNQKFQGKATLTSDTSSSTAYMELSSLRSEDSAVYYCARYDGSFEGYFDVWGQGTTLTVSS VL: DVVMTQSPLSLPVSLRQPASISCRSSQSLVHSDGNTYLHWYLQKPGQSPRLLIYKVSNRDSGVPDRFSGSGSGTDFTLKISRVEAEDLGVYFCSQSTHWPWTFGQGTKLEIKR",EC50 (read off the curve),[3],~0.06 µg/mL
"Hybridoma monoclonal antibody BCMA-A2-6H4-5D2 (antibody, V domains shown, Murine hybridoma antibody from BalB/c mice; also called clone BCMA-A2-6H4-5D2; CCTCC C2022188) VH: EVQLQQSGPELVKPGASVKMSCKASGYTFTSFLIHWVKQKPGQGLEWIGFIIPYNDGTKYNEKFKGKATLTSDKSSSTAYMELSSLTSEDSAVYYCARYDGSFEGYFDVWGAGTTLTVSS VL: DVLMTQTPLSLPVSLRDQASISCRSSQSLVHSDGNTYLHWYLQKPGQSPKLLIYKVSNRFSGVPDRFSGSGSGTDFTLKISRVEAEDLGVYFCSQSTHVPWTFGGGTKLEIK",EC50 (read off the curve),[2],~0.01 µg/mL
same,EC50 (read off the curve),[4],~0.09 µg/mL
"c5D2 (antibody, human IgG1, kappa, V domains shown, VH/VL of BCMA-A2-6H4-5D2 fused to human IgG1 and kappa constant domains; also called chimeric antibody c5D2) VH: EVQLQQSGPELVKPGASVKMSCKASGYTFTSFLIHWVKQKPGQGLEWIGFIIPYNDGTKYNEKFKGKATLTSDKSSSTAYMELSSLTSEDSAVYYCARYDGSFEGYFDVWGAGTTLTVSS VL: DVLMTQTPLSLPVSLRDQASISCRSSQSLVHSDGNTYLHWYLQKPGQSPKLLIYKVSNRFSGVPDRFSGSGSGTDFTLKISRVEAEDLGVYFCSQSTHVPWTFGGGTKLEIKT",EC50 (read off the curve),[2],~0.05 µg/mL
